As usually defined, the kcat is the maximal rate divided by the concentration of active sites. In general, Km refers to the substrate concentration at which the rate is half of its maximum.

Where a chain is given by its changes, count along the chain named. Names may count otherwise. “Also recorded” adds a separate entry of the source.

This note sets out measurements from patent publication US6416987B1, “Mutants of thymidylate synthase and uses thereof” (Sloan Kettering Institute for Cancer Research, priority 1997, dated 2002).

B1: D49G: human TS mutant Asp49→Gly (protein)
chain: MPVAGSELPRRPLPPAAQERDAEPRPPHGELQYLGQIQHILRCGVRKDGRTGTGTLSVFGMQARYSLRDEFPLLTTKRVFWKGVLEELLWFIKGSTNAKELSSKGVKIWDANGSRDFLDSLGFSTREEGDLGPVYGFQWRHFGAEYRDMESDYSGQGVDQLQRVIDTIKTNPDDRRIIMCAWNPRDLPLMALPPCHALCQFYVVNSELSCQLYQRSGDMGLGVPFNIASYALLTYMIAHITGLKPGDFIHTLGDAHIYLNHIEPLKIQLQREPRPFPKLRILRKVGKIDDFKAEDFQIEGYNPHPTIKMEMAV
B2: L221F: human TS mutant Leu221→Phe (protein)
chain: B1 chain with G49D, L221F
B3: D49N: human TS mutant Asp49→Asn (protein)
chain: B1 chain with G49N
B4: T51A: human TS mutant Thr51→Ala (protein)
chain: B1 chain with G49D, T51A
B5: L221A: human TS mutant Leu221→Ala (protein)
chain: B1 chain with G49D, L221A
B6: R50C: human TS mutant Arg50→Cys (protein)
chain: B1 chain with G49D, R50C
B7: F225L: human TS mutant Phe225→Leu (protein)
chain: B1 chain with G49D, F225L
B8: F225Y: human TS mutant Phe225→Tyr (protein)
chain: B1 chain with G49D, F225Y
B9: L221I: human TS mutant Leu221→Ile (protein)
chain: B1 chain with G49D, L221I
B10: F225S: human TS mutant Phe225→Ser (protein)
chain: B1 chain with G49D, F225S
B11: I108F: human TS mutant Ile108→Phe (protein)
chain: B1 chain with G49D, I108F
B12: G52S: human TS mutant Gly52→Ser (protein)
chain: B1 chain with G49D, G52S
B13: L221S: human TS mutant Leu221→Ser (protein)
chain: B1 chain with G49D, L221S
B14: K47E: human TS mutant Lys47→Glu (protein)
chain: B1 chain with K47E, G49D
B15: wt: wild-type human thymidylate synthase (recombinant, Pro2 to Leu2 codon modification) (protein, listed as Homo sapiens)
chain: B1 chain with G49D
modifications: Wild type human thymidylate synthase amino acid sequence (Genbank Accession number NP001062)
B16: pcDNA3hTS270: human TS mutant Ile108→Gly (protein, UniProt P04818 2-313, looked up, variant I108G)
Thymidylate synthase: PVAGSELPRRPLPPAAQERDAEPRPPHGELQYLGQIQHILRCGVRKDDRTGTGTLSVFGMQARYSLRDEFPLLTTKRVFWKGVLEELLWFIKGSTNAKELSSKGVKGWDANGSRDFLDSLGFSTREEGDLGPVYGFQWRHFGAEYRDMESDYSGQGVDQLQRVIDTIKTNPDDRRIIMCAWNPRDLPLMALPPCHALCQFYVVNSELSCQLYQRSGDMGLGVPFNIASYALLTYMIAHITGLKPGDFIHTLGDAHIYLNHIEPLKIQLQREPRPFPKLRILRKVEKIDDFKAEDFQIEGYNPHPTIKMEMAV
B17: pcDNA3hTS272: human TS mutant Ile108→Asn (protein, UniProt P04818 2-313, looked up, variant I108N)
Thymidylate synthase: B16 Thymidylate synthase with G107N
B18: pcDNA3hTS271: human TS mutant Ile108→Glu (protein, UniProt P04818 2-313, looked up, variant I108E)
Thymidylate synthase: B16 Thymidylate synthase with G107E
B19: Q214R: human TS mutant Gln214→Arg (protein)
chain: B1 chain with G49D, Q214R
B20: F59L: human TS mutant Phe59→Leu (protein)
chain: B1 chain with G49D, F59L
B21: L221R: human TS mutant Leu221→Arg (protein)
chain: B1 chain with G49D, L221R

The test system of one data set is Mouse TS-negative cells (FSthy21). Put plainly: Rescue of TS-negative cells by transfection of human TS cDNAs. The data set is classed as cell-based. To be noted: selective medium lacking thymidine. The text has this:
Mouse TS-negative cells (FSthy21) were transfected with a plasmid (pcDNA3hTS*) encoding wild-type or a various mutant human TS enzyme by standard DOTAP transfection procedures. The host cells are deficient in TS, which are unable to survive without exogenous thymidine. […] In contrast, cells were unable to survive with transfection of other 11 human TS variants. For each surviving transfectant, at least 12 individual clones were isolated by soft agar or limiting dilution in 96-well plates. Those clones were expanded to cell lines by growth in normal media. Three cell clones for each transfectant were randomly selected for drug sensitivity assay.
Take B1: the “TS catalytic function / complementation of growth of TS-negative cells” value (“TS catalytic function / complementation” for short) was “able to complement growth; also recorded: retain TS catalytic function; also recorded: able to allow growth”.
The same measure, in the same setting: next, B2: “inactive”; B3: “not tolerated”; B4: “not tolerated”.
As to B5, the “TS catalytic function / complementation” value is recorded as “able to complement growth”.
With B6, the “TS catalytic function / complementation” value was “catalytically inactive”.
As to B7, the “TS catalytic function / complementation” value is “able to complement growth; also recorded: active enzymes”.
As to B8, the “TS catalytic function / complementation” value was “able to complement growth; also recorded: active enzymes”.
For the molecule B9, the “TS catalytic function / complementation” value is listed as “able to complement growth”.
For the molecule B10, the “TS catalytic function / complementation” value was “severely diminished TS catalytic activity”.
As for B11, the “TS catalytic function / complementation” value is reported as “able to complement growth; also recorded: functional”.
Consider B12, for which the “TS catalytic function / complementation” value is on record as “able to complement growth; also recorded: retain TS catalytic function; also recorded: able to allow growth”.
Take B13: the “TS catalytic function / complementation” value is “able to complement growth”.
In the case of B14, the “TS catalytic function / complementation” value is recorded as “able to complement growth; also recorded: retain TS catalytic function; also recorded: able to allow growth”.
For B15, the “TS catalytic function / complementation” value is “able to complement growth”.

The same data set, now with this note: selective medium without thymidine.
For B16, the “FM3A TS cells surviving by transfection” value is given as “no”.
In the case of B17, the “FM3A TS cells surviving by transfection” value is given as “no”.
As for B18, the “FM3A TS cells surviving by transfection” value was “no”.
As for B1, the “FM3A TS cells surviving by transfection” value is reported as “yes”.
Still for that read-out and setting: the entry for B2 is “no”; for B19 it is “no”.
Regarding B3, the “FM3A TS cells surviving by transfection” value is on record as “no”.
Turning to B4, the “FM3A TS cells surviving by transfection” value was “no”.
With B5, the “FM3A TS cells surviving by transfection” value is “yes”.
Turning to B6, the “FM3A TS cells surviving by transfection” value is “no”.
The same measure, in the same setting: next, B7: “yes”; B8: “yes”.
For the molecule B9, the “FM3A TS cells surviving by transfection” value was “yes”.
On the same count and under the same terms, the entry for B20 is “no”; for B10 it is “no”; for B11 it is “yes”.
As to B21, the “FM3A TS cells surviving by transfection” value was “no”.
Take B12: the “FM3A TS cells surviving by transfection” value is “yes”.
As to B13, the “FM3A TS cells surviving by transfection” value is “yes”.
B14: the “FM3A TS cells surviving by transfection” value is given as “yes”.
B15: the “FM3A TS cells surviving by transfection” value was “yes”.

A further data set has as its system human thymidylate synthase. Put plainly: Kinetic parameters of wild-type and mutant human thymidylate synthases. The class given is biochemical.
Conditions: not given
Here is the method:
TS activity was monitored spectrophotometrically at 340 nm as described (Wahba et al., 1961). Activity was determined at 30° C. The assay mixture contained 50 mM Tris.HCl, pH 7.4, 25 mM MgCl2, 6.5 mM formadehyde, 1 mM EDTA, 75 mM BME and 100 μM dUMP, CH2H4folate (100 μM) was added to initiate the reaction. Black cuvettes lacked CH2H4folate. A unit of activity is defined as the amount of enzyme required to convert 1 μmol of dUMP to dTMP/minutes at 30° C. Protein was determined from OD280=0.87×10^5 M^−1 cm^−1, which is equivalent to 1.43 OD280/mg of protein.
Michaelis constants (Km's) for CH2H4folate and dUMP were determined from initial velocity measurements, which were obtained by measuring the change in OD340 with a Shimadzu UV-2101 PC spectrophotometer. […] Steady-state kinetic parameters were subsequently obtained by a nonlinear least-squares fit of the data to the Michaelis-Menten equation using a computer program. The kcats were calculated by dividing Vmax by the estimated concentration of enzyme used in the reaction.
For the molecule B1, the “increase of Km for CH2H4folate over wild-type” value was found to be 4 fold, the “increase of Km for dUMP over wild-type” value is 4 fold, the kcat is 0.16 s⁻¹ and the “kcat lower than wild-type TS” value was 3 fold.
Turning to B15, the kcat is 0.68 s⁻¹.

The data set is the same for the next values; noted with them: CH2H4folate 3 mM; read-out: Km (dUMP).
Consider B1, for which the Km was found to be 12 µM.
Turning to B15, the Km came to 4.4 µM.

Still in this data set, the particulars now being: dUMP fixed at 200 μM; read-out: Km (CH2H4folate).
In the case of B1, the Km was determined as 122 µM.
In the case of B15, the Km turned out to be 32.4 µM.
